Laboratory results taken from US20250129150A1 (APOGEE THERAPEUTICS, published 2025).
Numbering of substitutions follows the chain as printed.

T1: Recombinant Cynomolgus IL-13 Protein, His Tag (SINO BIOLOGICAL, Cat. 11057-C07H) (cynomolgus monkey, UniProt Q5I6E4 19-132 (Macaca thibetana entry))
T1 construct: also called Cyno IL-13; cynomolgus monkey IL-13
T1 chain: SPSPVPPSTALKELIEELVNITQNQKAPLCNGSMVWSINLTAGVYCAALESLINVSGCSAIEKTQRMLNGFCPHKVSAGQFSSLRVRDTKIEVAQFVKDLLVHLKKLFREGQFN

T2: recombinant human CD32a (167R) (human, UniProt P12318 36-218)
T2 sequence (looked up): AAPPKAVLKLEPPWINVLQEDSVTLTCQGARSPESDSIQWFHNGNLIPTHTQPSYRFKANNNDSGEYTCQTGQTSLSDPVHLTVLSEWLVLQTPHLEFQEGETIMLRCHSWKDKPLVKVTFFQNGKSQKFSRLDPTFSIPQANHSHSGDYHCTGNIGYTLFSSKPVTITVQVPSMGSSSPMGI

T3: recombinant human CD32b (human, UniProt P31994 46-217)
T3 sequence (looked up): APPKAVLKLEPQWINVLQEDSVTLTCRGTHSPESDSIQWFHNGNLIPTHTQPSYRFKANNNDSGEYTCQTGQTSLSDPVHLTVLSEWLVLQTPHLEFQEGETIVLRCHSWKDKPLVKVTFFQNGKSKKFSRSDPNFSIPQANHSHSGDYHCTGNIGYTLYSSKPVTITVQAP

B1: Construct 107 (antibody, human IgG1, kappa, V domains shown)
VH: EVQLLESGGGLVQPGGSLRLSCAASGFSLHAYSVNWVRQAPGKGLEWLGMIWGDGKIVYNSALKSRLTISKDSSKNTVYLQMNSLRAEDTAVYYCAGDGYYPYAMDNWGQGTTVTVSS
VL: DIQLTQSPSSLSASVGDRVTITCRASKSVDSYGNSFMHWYQQKPGKAPKLLIYLASNLESGVPSRFSGSGSGTDFTLTISSLQPEDFATYYCQQNNEDPRTFGGGTKVEIKR
B2: Construct 110 (antibody, human IgG1, kappa, V domains shown)
VH: B1 VH with H30S
VL: B1 VL
B3: Construct 114 (antibody, human IgG1, kappa, V domains shown)
VH: B1 VH with H30N, A31Q
VL: B1 VL
B4: Construct 108 (antibody, human IgG1, kappa, V domains shown)
VH: B1 VH with H30D
VL: B1 VL
B5: Construct 141 (antibody, human IgG1, kappa, L234A L235A)
heavy: EVQLQESGPGLVKPSETLSLTCTVSGFSLNAYSVNWIRQPPGKGLEWLGMIWGDGKIVYNSALKSRLTISKDSSKNQVSLKLSSVTAADTAVYYCAGDGYYPYAMDNWGQGTTVTVSSASTKGPSVFPLAPSSKSTSGGTAALGCLVKDYFPEPVTVSWNSGALTSGVHTFPAVLQSSGLYSLSSVVTVPSSSLGTQTYICNVNHKPSNTKVDKKVEPKSCDKTHTCPPCPAPEAAGGPSVFLFPPKPKDTLYITREPEVTCVVVDVSHEDPEVKFNWYVDGVEVHNAKTKPREEQYNSTYRVVSVLTVLHQDWLNGKEYKCKVSNKALPAPIEKTISKAKGQPREPQVYTLPPSRDELTKNQVSLTCLVKGFYPSDIAVEWESNGQPENNYKTTPPVLDSDGSFFLYSKLTVDKSRWQQGNVFSCSVMHEALHNHYTQKSLSLSPG
light: DIQLTQSPSSLSASVGDRVTITCRASKSVDSYGNSFMHWYQQKPGKAPKLLIYLASELESGVPSRFSGSGSGTDFTLTISSLQPEDFATYYCQQNNEDPRTFGGGTKVEIKRTVAAPSVFIFPPSDEQLKSGTASVVCLLNNFYPREAKVQWKVDNALQSGNSQESVTEQDSKDSTYSLSSTLTLSKADYEKHKVYACEVTHQGLSSPVTKSFNRGEC
notes: also called HC1; LC6_m8
B6: Construct 137 (antibody, human IgG1, kappa, L234A L235A)
heavy: EVQLLESGGGLVQPGGSLRLSCAASGFSLNAYSVNWVRQAPGKGLEWLGMIWGDGKIVYNSALKSRLTISKDSSKNTVYLQMNSLRAEDTAVYYCAGDGYYPYAMDNWGQGTTVTVSSASTKGPSVFPLAPSSKSTSGGTAALGCLVKDYFPEPVTVSWNSGALTSGVHTFPAVLQSSGLYSLSSVVTVPSSSLGTQTYICNVNHKPSNTKVDKKVEPKSCDKTHTCPPCPAPEAAGGPSVFLFPPKPKDTLYITREPEVTCVVVDVSHEDPEVKFNWYVDGVEVHNAKTKPREEQYNSTYRVVSVLTVLHQDWLNGKEYKCKVSNKALPAPIEKTISKAKGQPREPQVYTLPPSRDELTKNQVSLTCLVKGFYPSDIAVEWESNGQPENNYKTTPPVLDSDGSFFLYSKLTVDKSRWQQGNVFSCSVMHEALHNHYTQKSLSLSPG
light: B5 light
notes: also called HC5; LC6_m8
B7: Lebrikizumab (Construct 1) (antibody, human IgG4 S228P, kappa)
heavy: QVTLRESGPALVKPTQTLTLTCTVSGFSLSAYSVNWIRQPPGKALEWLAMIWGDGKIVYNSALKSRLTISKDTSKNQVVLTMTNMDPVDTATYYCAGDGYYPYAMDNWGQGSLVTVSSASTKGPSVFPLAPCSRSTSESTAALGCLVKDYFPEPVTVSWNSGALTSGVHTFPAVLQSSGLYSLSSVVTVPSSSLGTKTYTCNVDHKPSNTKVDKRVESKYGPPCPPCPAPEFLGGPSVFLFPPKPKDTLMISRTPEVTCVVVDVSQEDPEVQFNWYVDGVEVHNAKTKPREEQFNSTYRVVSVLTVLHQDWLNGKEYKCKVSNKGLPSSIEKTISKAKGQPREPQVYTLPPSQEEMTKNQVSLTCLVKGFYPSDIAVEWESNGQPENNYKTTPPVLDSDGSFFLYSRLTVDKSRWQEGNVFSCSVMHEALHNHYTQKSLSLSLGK
light: DIVMTQSPDSLSVSLGERATINCRASKSVDSYGNSFMHWYQQKPGQPPKLLIYLASNLESGVPDRFSGSGSGTDFTLTISSLQAEDVAVYYCQQNNEDPRTFGGGTKVEIKRTVAAPSVFIFPPSDEQLKSGTASVVCLLNNFYPREAKVQWKVDNALQSGNSQESVTEQDSKDSTYSLSSTLTLSKADYEKHKVYACEVTHQGLSSPVTKSFNRGEC
notes: also called Lebrikizumab-HC; Lebrikizumab-LC

Tests used:
[1] = biological target: T4, hIL-13 (human, UniProt P35225 35-146, limits assumed); test: cell-based or functional assay
T4 sequence (P35225 other isoform, or with tags, fused parts or gaps limits assumed): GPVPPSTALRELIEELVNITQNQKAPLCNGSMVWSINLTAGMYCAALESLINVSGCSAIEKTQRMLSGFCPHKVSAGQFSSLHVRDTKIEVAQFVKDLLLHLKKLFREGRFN

[2] = biological target: T4, hIL-13; test: cell-based or functional assay; remark: listed apart in the source
[3] = biological target: T4, hIL-13; test: cell-based or functional assay; remark: listed apart in the source
[4] = biological target: T5, Recombinant Human IL-13 Protein, His Tag (Acro Cat. IL3-H52H4) (human, UniProt P35225 35-146); test: SPR (Biacore 8K), mAb captured on Protein G chip, IL-13 as analyte
T5 construct: Bought protein; also called Hu IL-13; not shown: His Tag
T5 sequence (P35225 other isoform, or with tags, fused parts or gaps limits assumed): as above
Procedure: (§1) Samples were injected in a multi-cycle manner over freshly captured mAb, by regenerating the capture surfaces with injection of glycine pH 1.5 for 30 sec at a flow rate of 30 μL/min. The data was processed and analyzed with Biacore Insight Evaluation Software Version 2.0.15.12933 (GE Healthcare) as follows. […] The responses from the two buffer blank injections were then subtracted from the reference subtracted data (2-1) to yield double-referenced data, which were fit to an 1:1 binding model to determine the apparent association (ka) and dissociation rate constants (kd). Their ratio provided the apparent equilibrium dissociation constant or affinity constant (KD=kd/ka).

[5] = biological target: T1, Recombinant Cynomolgus IL-13 Protein, …; test: as above
Procedure: as §1

[6] = biological target: T4, hIL-13; test: cell-based or functional assay; remark: listed apart in the source
[7] = biological target: T4, hIL-13; test: ELISA
[8] = biological target: T4, hIL-13; test: cell-based or functional assay; remark: listed apart in the source
[9] = biological target: biotinylated hIL-13 (human, UniProt P35225 35-146, limits assumed, biotinylated (site not stated)); test: FACS; blockade of biotinylated hIL-13 (0.05 ug/mL) binding to HEK293 cells expressing hIL-13Rα1/hIL-4Rα
Chain of biotinylated hIL-13 (P35225 other isoform, or with tags, fused parts or gaps limits assumed): as above
Procedure: Briefly, HEK293 previously transduced to stably express both hIL-13Rα and hIL-4Rα were cultured and harvested. Cells were seeded at 200,000 cells in 100 uL per well. Cells were washed and the supernatant was discarded. […] The cells were stained in this mixture at 4° C. for 1 hour. […] Cells were incubated at 4° C. for 1 hour, protected from light. Cells were then washed and the median fluorescence intensity (MFI) of cells in each well were recorded by FACS using a BD FACSCanto II. Subsequent data were analyzed using GraphPad Prism.

[10] = biological target: T4, hIL-13; test: cell-based or functional assay; remark: listed apart in the source
[11] = biological target: T2, recombinant human CD32a (167R); test: SPR, antibody captured on anti-kappa chip, recombinant human receptor as analyte
Procedure: (§2) Binding affinity (KD) of antibodies to Fc receptors and C1q were determined through surface plasmon resonance (SPR) using a Biacore 8K. Briefly, an SPR chip functionalized with an anti-kappa light-chain antibody was used to capture purified antibodies normalized to […], at a flow rate of 10 uL/min for 90 seconds or 120 seconds. A paired channel with only buffer was used as reference. Subsequently, varying concentrations of recombinant human CD32a (167H), CD32a (167R), CD32b, CD16a (176V), CD16a (176F), FcRn, CD64, and C1q were injected over the surface with captured purified antibody as well as the reference channel. Regeneration of the chip between different concentrations of different antigens were performed with 10 mM Glycine HCl, pH 1.5 and antibody was again captured. Association and dissociation rate constants were subsequently determined through fitting to a 1:1 Langmuir binding model or steady-state analysis model, whichever applicable, using the Biacore Insight Evaluation Software from which a KD value was derived.

[12] = biological target: T3, recombinant human CD32b; test: as above
Procedure: as §2

[13] = biological target: recombinant human CD64 (human, UniProt P12314 16-288); test: as above
Chain of recombinant human CD64 (P12314 16-288 limits assumed): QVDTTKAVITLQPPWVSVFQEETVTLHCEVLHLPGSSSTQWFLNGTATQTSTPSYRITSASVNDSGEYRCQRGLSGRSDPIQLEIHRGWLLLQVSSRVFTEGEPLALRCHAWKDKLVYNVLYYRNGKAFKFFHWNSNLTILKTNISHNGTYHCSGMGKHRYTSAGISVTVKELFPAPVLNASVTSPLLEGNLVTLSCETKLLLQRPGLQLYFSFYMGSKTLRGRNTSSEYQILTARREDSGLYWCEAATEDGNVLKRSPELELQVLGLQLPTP
Procedure: as §2

[14] = biological target: T6, recombinant human FcRn (human, UniProt P55899 24-297; P61769 21-119); test: SPR, antibody captured on anti-kappa chip, FcRn as analyte, pH 5.8; pH 5.8
T6 construct: also called neonatal Fc receptor
T6 sequence (P55899 24-297 limits assumed, chain 1 of 2): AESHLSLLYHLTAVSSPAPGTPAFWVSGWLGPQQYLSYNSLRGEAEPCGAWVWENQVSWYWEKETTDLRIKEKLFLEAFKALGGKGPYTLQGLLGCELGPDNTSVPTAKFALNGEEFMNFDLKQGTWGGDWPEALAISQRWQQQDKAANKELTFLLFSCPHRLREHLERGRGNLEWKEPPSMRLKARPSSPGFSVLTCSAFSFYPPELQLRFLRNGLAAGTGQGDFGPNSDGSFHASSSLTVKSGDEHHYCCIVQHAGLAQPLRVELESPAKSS
T6 sequence (P61769 21-119 limits assumed, chain 2 of 2): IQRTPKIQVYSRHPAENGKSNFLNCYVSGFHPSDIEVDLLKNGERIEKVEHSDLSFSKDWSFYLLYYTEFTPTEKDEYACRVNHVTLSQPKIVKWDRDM
Procedure: as §2

Binder | TARC Release IC50 (A549 cells) [1] [nM] | CD23 Expression Inhibition IC50 (human PBMCs) [2] [nM] | pSTAT6 Inhibition IC50 (human PBMCs) [2] [nM] | TF-1 Proliferation Inhibition IC50 [3] [nM] | Kd [4] [nM] | Kd [5] [nM] | TARC Inhibition IC50 (A549 cells) [8] [nM] | IC50 [9] [nM] | pSTAT6 Inhibition IC50 (HT-29 cells) [10] [nM] | also measured
B1 | 1.3 | – | – | – | – | – | – | – | – | –
B2 | 1 | – | – | – | – | – | – | – | – | –
B3 | 1.1 | – | – | – | – | – | – | – | – | –
B4 | 1 | – | – | – | – | – | – | – | – | –
B5 | – | 0.86 | 0.41 | 0.19 | 0.107 | 0.329 | 0.73 | 0.81 | 0.25 | CCL2 Secretion IC50 (HaCaT cells) [6]: 0.075 nM; CCL26 Secretion IC50 (HaCaT cells) [6]: 0.055 nM; NTRK1 Expression IC50 (HaCaT cells) [6]: 0.054 nM; Kd [7]: 0.025 nM
B6 | – | 1.01 | 0.44 | 0.16 | 0.0421 | 0.246 | 0.87 | 0.89 | 0.33 | Kd [7]: 0.026 nM
B7 | 0.9 | 0.81 | 0.38 | 0.2 | 0.131 | 0.309 | 0.74 | 1.11 | 0.23 | Kd [11]: 2380 nM; Kd [12]: 2930 nM; Kd [13]: 1.12 nM; CCL2 Secretion IC50 (HaCaT cells) [6]: 0.076 nM; CCL26 Secretion IC50 (HaCaT cells) [6]: 0.055 nM; NTRK1 Expression IC50 (HaCaT cells) [6]: 0.056 nM; Kd [14]: 1060 nM
